Our source for the Kd values is patent US20220073617A1 (published 2022).

The target of test [1] is T1, monovalent hVISTA-ECD (amino acids 32-193 of SEQ ID NO: 1 with a 7xHis tail) (UniProt Q9H7M9 33-193). The test is described as follows: SPR; pH 6.0. In general terms: In SPR one partner is held on a chip, and binding of the other changes the refractive index at the surface.
In test [2] the target is T1, monovalent hVISTA-ECD (amino acids …). The test is described as follows: SPR; pH 6.0. This is another data set of the same source.

Read-outs that look alike come from different tables or passages of the source.

T1 sequence (Q9H7M9 other isoform, or with tags, fused parts or gaps): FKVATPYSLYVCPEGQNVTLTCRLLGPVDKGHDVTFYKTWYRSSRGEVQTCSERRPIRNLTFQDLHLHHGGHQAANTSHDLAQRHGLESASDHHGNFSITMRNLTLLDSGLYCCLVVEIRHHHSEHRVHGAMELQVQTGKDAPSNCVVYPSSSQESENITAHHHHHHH

B1: P1-061029.IgG1.3 (antibody, V domains shown)
VH: EVQLVESGGGLVQPGKSLRLSCAASGFTLDDYAMHWVRQAPGKGLEWVSGINWNSANIGYADSVKGRFTISRDNAKNSLYLQMNSLRTEDTALYYCAKVPGYSGGWIDAFDVWGQGTMVTVSS
VL: not shown
Take B1: the Kd in test [1] and in test [2] was 4.5 nM in each case.

A word on the Kd: it is the constant that tells how readily two partners part at equilibrium. A lower Kd goes with tighter binding.
